Entries after “also recorded” stand apart in the source; their conditions may differ.
Key:
CXCR4 [1] = target: T1, CXCR4 (Homo sapiens, UniProt P61073); assay: β-arrestin-2 recruitment BRET assay in HEK293 cells; format: cell-based; conditions: concentrations increased to 10 and 100 μM
T1 construct: purchased Millipore
Protocol: β-arrestin-2 recruitment. β-arrestin-2 recruitment was measured using an intermolecular BRET assay performed as described previously. HEK293E cells were cotransfected with […] of CXCR4-eYFP construct with […] of β-arrestin-2-RLuc (a gift from Michel Bouvier, University of Montreal, Montreal, QC, Canada). For [acceptor]/[donor]titrations […] of β-arrestin-2-RLuc were cotransfected with increasing amounts of the CXCR4-eYFP construct. All transfections were completed to 2 mg/well with empty vector. […] Cells were washed once with PBS, and the RLuc substrate coelenterazine-II (NanoLight Technology) was added at a final concentration of […] to BRET buffer (PBS, 0.5 mM MgCl2, 0.1% w/v glucose). β-arrestin recruitment was measured 30 min after ligand addition. […]
β-arrestin-2 recruitment. β-arrestin-2 recruitment was measured using an intermolecular BRET assay performed as described previously. […] The medium of the cells was then changed to BRET buffer (PBS, 0.5 mM MgC2, 0.1% (w/v) BSA). β-arrestin-2 recruitment was measured 15 min after ligand addition, and 10 min after the addition of the RLuc3 substrate coelenterazine400a (NanoLight Technology) at a final concentration of […]. […]

CXCR4(Y12A) = target: T2, CXCR4(Y12A) (Homo sapiens, UniProt P61073, Y12A); assay: Calcium flux in CHO-K1 cells, FLAG-tagged CXCR4(Y12A); format: cell-based; conditions: relative to wildtype CXCR4
T2 construct: expressed in transfected cells; host or cells: CHO-K1 stably expressing Galpha15 (transient)
Protocol: Cell culture. Chinese hamster ovary K1 (CHO-K1) cells, stably transfected with the Gα15 gene in pcDNA3.1+, were cultured in a 1:1 mixture of Dulbecco's modified Eagle medium (DMEM) with Glutamax (Gibco):F12 nutrient mixture (Gibco) supplemented with 10% (w/v) fetal bovine serum (FBS) (Gibco). Stable expression of the Gα15 transgene was maintained by further supplementing the growth medium with 700 μg ml^−1 geneticin (Gibco).
Transfections. For transient transfections with the Flag-CXCR4 WT and N-terminally mutated constructs, the CHO-K1 Gα15 stable cells were lifted using 0.25% (v/v) trypsin-EDTA (Gibco), and 2×10^6 cells were re-plated onto 10 cm culture dishes. […] The cells were transfected 24 hours later using the Mirus TransIT-CHO Transfection Kit according to the manufacturers protocol, with the following exceptions: the amount of CHO transfection reagent was scaled up to 4 μl μg^−1 of DNA in the transfection mixtures, and the amount of CHO mojo reagent was scaled up to 1 μl μg^−1 of DNA in the mixtures. […]
Calcium flux. […] Fluorescence was measured at 310 K using a FlexStation2 Microplate Reader with excitation and emission wavelengths at 485 nm and 515 nm, respectively. […] CXCR4 variants with EC50 or maximum calcium response values more than three standard deviations from the mean CXCR4WT quantities were deemed significant.

CXCR4 [2] = target: T1, CXCR4; assay: Radioligand displacement of 125I-CXCL12 from CXCR4 membrane preparations; format: binding; conditions: relative to CXCL12WT
Protocol: Radioligand displacement. Commercial membrane preparations of cells stably expressing CXCR4 or CXCR7 were purchased (Millipore). Five micrograms of protein per point was incubated for 90 min on ice in binding buffer with 0.03 nM of […] as a tracer and increasing concentrations of competitor in a final 40 μL volume. Bound radioactivity was separated from free ligand by filtration, and receptor-bound radioactivity was quantified by gamma-radiation counting (Perkin-ECXCL121er Life and Analytical Sciences). Isolated membrane binding experiments were carried out in duplicate.

T1 sequence (P61073 whole entry): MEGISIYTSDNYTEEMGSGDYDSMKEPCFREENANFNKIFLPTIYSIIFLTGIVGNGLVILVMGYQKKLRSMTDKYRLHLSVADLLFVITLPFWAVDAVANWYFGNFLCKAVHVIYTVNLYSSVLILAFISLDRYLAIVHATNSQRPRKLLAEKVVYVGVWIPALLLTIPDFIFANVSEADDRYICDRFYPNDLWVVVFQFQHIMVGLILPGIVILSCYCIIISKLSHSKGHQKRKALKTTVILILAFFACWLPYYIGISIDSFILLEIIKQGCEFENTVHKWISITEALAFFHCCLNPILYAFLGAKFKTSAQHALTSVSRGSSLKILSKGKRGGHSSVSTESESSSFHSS
T2 sequence (P61073 whole entry Y12A): as the sequence (P61073 whole entry) above, with Y12A counted along it

Row | Substance | shape of β-arrestin-2 recruitment dose response (CXCR4 [1]) | reduction of potency (calcium response) (CXCR4(Y12A)) [fold] | recognition of the full-length receptor in comparison to CXCL12WT (CXCR4 [2])
1 | CXCL12WT: wild type CXCL12 (stromal cell-derived factor-1/SDF-1), SEQ ID NO:1 | bimodal recruitment; also recorded: bimodal stimulation | 3 | 
2 | CXCL122: constitutively dimeric variant of CXCL12 containing L36C/A65C mutations |  |  | six-times weaker

— patent US11369662B2 (The Medical College of Wisconsin, Inc., priority 2014, dated 2022)
